Source: US20250352661A1 (MYTHIC THERAPEUTICS, published 2025)

T1: LRRC15 on LRRC15 positive cell lines SAOS2 and G292 (UniProt Q8TF66 22-581, limits assumed)
T1 construct: whole, on cells
T1 sequence (looked up): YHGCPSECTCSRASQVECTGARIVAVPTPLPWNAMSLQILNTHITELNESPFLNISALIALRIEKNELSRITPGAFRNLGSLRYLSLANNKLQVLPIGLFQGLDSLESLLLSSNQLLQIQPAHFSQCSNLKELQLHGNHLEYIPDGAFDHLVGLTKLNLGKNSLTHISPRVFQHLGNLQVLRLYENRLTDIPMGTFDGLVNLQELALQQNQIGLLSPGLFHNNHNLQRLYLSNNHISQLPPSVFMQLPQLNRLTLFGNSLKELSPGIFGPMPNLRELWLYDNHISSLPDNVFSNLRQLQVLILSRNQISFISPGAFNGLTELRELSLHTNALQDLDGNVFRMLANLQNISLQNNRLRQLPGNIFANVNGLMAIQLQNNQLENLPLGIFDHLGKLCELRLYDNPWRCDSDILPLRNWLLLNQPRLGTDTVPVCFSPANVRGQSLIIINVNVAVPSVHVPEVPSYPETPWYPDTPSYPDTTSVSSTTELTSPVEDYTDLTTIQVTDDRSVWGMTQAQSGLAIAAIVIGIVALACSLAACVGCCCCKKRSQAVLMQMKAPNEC

T2: LRRC15 on the surface of LRRC15+ cells (SAOS-2, U87MG) (UniProt Q8TF66 22-581, limits assumed)
T2 sequence (looked up): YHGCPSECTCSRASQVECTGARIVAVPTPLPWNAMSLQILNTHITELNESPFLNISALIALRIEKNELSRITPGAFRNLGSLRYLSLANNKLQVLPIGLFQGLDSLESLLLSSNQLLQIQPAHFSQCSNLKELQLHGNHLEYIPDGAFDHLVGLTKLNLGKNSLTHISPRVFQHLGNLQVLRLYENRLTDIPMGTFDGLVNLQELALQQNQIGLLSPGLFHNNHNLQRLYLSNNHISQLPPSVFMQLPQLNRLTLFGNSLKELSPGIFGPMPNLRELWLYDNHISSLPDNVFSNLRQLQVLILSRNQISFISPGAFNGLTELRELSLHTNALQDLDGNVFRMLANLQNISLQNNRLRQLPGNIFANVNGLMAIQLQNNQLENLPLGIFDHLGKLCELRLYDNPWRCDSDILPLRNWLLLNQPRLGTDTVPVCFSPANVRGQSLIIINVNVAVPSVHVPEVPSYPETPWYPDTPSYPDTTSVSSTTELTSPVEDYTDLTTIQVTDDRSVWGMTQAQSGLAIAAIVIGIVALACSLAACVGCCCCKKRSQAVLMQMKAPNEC

T3: Human LRRC15 Protein, His Tag (Acro Biosystems) (human, UniProt Q8TF66 22-538, limits assumed)
T3 construct: not shown: His tag
T3 sequence (looked up): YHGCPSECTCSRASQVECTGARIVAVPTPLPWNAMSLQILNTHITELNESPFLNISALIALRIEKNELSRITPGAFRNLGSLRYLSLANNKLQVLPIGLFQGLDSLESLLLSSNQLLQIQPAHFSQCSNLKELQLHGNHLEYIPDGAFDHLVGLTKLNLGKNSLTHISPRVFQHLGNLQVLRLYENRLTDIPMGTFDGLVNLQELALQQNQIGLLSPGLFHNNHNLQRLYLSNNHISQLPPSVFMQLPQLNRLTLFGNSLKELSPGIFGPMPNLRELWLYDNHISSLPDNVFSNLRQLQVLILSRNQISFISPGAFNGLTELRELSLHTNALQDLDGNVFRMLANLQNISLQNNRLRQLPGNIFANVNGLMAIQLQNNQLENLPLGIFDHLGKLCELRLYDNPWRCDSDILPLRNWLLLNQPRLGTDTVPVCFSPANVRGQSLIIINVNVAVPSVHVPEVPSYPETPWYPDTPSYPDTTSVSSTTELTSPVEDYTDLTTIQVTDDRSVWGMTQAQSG

B1: MYT3315 (antibody, V domains shown)
VH: EVQLVESGGGLVQPGGSLRLSCAVSGFSLTSYGVHWVRQATGKGLEWLGVIWAGGSTNYNSALMSRLTISKENAKSSVYLQMNSLRAGDTAMYYCATHMITEDYYGMDYWGQGTTVTVSS
VL: DIVMTQSPDSLAVSLGERATINCKSSQSLLNSRTRKNYLAWYQQKPGQSPKLLIYWASTRHSGVPDRFSGSGSGTDFTLTISSLQAEDVAVYYCKQSYNLPTFGGGTKVEIK
notes: also called hu139.10 LC His Variant; hu139.10 LC His Var
B2: Samrotamab V205C ADC (antibody, part only; not given: V205C light chain and payload, V domains shown, part only)
VH: EVQLVQSGAEVKKPGASVKVSCKASGYKFSSYWIEWVKQAPGQGLEWIGEILPGSDTTNYNEKFKDRATFTSDTSINTAYMELSRLRSDDTAVYYCARDRGNYRAWFGYWGQGTLVTVSS
B3: MYT5438, samrotamab ADC, Hinge Conjugated, DAR 2.0 (antibody, V domains shown)
VH: EVQLVQSGAEVKKPGASVKVSCKASGYKFSSYWIEWVKQAPGQGLEWIGEILPGSDTTNYNEKFKDRATFTSDTSINTAYMELSRLRSDDTAVYYCARDRGNYRAWFGYWGQGTLVTVSS
VL: DIQMTQSPSSLSASVGDRVTITCRASQDISNYLNWYQQKPGGAVKFLIYYTSRLHSGVPSRFSGSGSGTDYTLTISSLQPEDFATYFCQQGEALPWTFGGGTKVEIK
modifications: ADC: payload conjugated at the hinge, DAR 2.0 (payload not given) ; ADC: payload conjugated at hinge cysteines, DAR 2.0. The letters do not carry it.
notes: also called Sam; ADC, Hinge (DAR 2.0); Samrotamab WT
B4: MYT2737 (antibody, V domains shown)
VH: EVQLVQSGAEVKKPGASVKVSCKASGYKFSSYWIEWVKQAPGQGLEWIGEILPGSDTTNYNEKFKDRATFTSDTSINTAYMELSRLRSDDTAVYYCARDRGNYRAWFGYWGQGTLVTVSS
VL: DIQMTQSPSSLSASVGDRVTITCRASQDISNYLNWYQQKPGGAVKFLIYHTSRLHSGVPSRFSGSGSGTDYTLTISSLQPEDFATYFCQQGEALPWTFGGGTKVEIK
notes: also called Sam; LC His Variant; samrotamab LC His Var
B5: MYT8511 (antibody, V domains shown)
VH: QQQLVESGGGLVKPGASLTLTCKASGHHFSGSYWICWVRQAPGKGLEWIGCHNGGSLDITYYASWAKGRFTISKASSTTVTLQKTSLTAADTATYFCASDTSYTAYGNFYFNLWGPGTLVTVSS
VL: AQVLTQTASPVSAAVGGTVTINCQSSQSVLNNNWLAWYQQKPGQPPKLLIYDASSLASGVPSRFKGSGSGTQFTLTISDLESDDAATYYCQGEFSCGSADCNAFGGGTEVVVKG
notes: Rabbit 24D9 VH combination variant; also called 24D9 VH combo F27H, S28H, I52H

What was measured:
[1] = target: T1, LRRC15 on LRRC15 positive cell lines …; experiment: cell binding on G292 cells (LRRC15 positive), pH 6.4
[2] = target: T1, LRRC15 on LRRC15 positive cell lines …; experiment: cell binding on SAOS2 cells (LRRC15 positive), pH 6.4
[3] = target: T1, LRRC15 on LRRC15 positive cell lines …; experiment: cell binding on G292 cells (LRRC15 positive), pH 7.4; design: unit not given here
[4] = target: T1, LRRC15 on LRRC15 positive cell lines …; experiment: cell binding on SAOS2 cells (LRRC15 positive), pH 7.4; design: unit not given here
[5] = target: T2, LRRC15 on the surface of LRRC15+ cells …; experiment: cell-based or functional assay
[6] = target: T3, Human LRRC15 Protein, His Tag (Acro …); experiment: BLI (Octet), Ab on anti-human Fc sensor, LRRC15 associated at pH 7.4
Experimental: For each individual plot, antigen binding proteins were captured on anti-human Fc biosensors and associated with LRRC15 at pH 7.4. Dissociation was at pH 7.4 (black) or pH 5.4 (grey). Major X-axis ticks=100 seconds, with left dashed vertical line=0 seconds. Major Y-axis ticks=0.5 nm and octet plots are shown MYT5712 and MYT6080-MYT6121.
After allowing for a period of protein expression, cell culture supernatants are collected, quantified, and the pH dependence of the variant is evaluated using biolayer interferometry (BLI) or other methods known to the art. Briefly, cell culture supernatants are normalized to an antibody expression level of 50 μg/mL, and captured on an anti-human Fc sensor (Forte Bio). A baseline is established using 1× kinetics buffer (Forte Bio), and the sensor is associated with 100 nM of LRRC15 in 1×PBS at pH 7.4 for 300 sec to generate an association curve. In the dissociation phase, the antibody-antigen complex on the sensor is exposed to 1×PBS at either pH 5.5 or pH 7.4 for 300-500 sec. […]

| Binder | Affinity [1] | Affinity [2] | Affinity [3] | Affinity [4] | 20 nM Efficacy (cytotoxicity of candidates against SAOS-2 cells) [5] | binding result [6] |
| --- | --- | --- | --- | --- | --- | --- |
| B1 | 0.251 | 0.398 | 0.155 | 0.296 |  |  |
| B2 |  |  |  |  | 16.4 |  |
| B3 | 0.187 | 0.336 | 0.165 | 0.31 |  |  |
| B4 | 0.676 | 0.92 | 0.528 | 0.84 |  |  |
| B5 |  |  |  |  |  | no binding (tested: 50 nM) |
